# Results: the supplement of paper PMC10567573
# B1: UBE2R2 (parent)
# chain: DPQSGELPSERWNPTQNVRTILLS
# B2: ADAMTS4 (parent)
# chain: SFRKFRYGYNNVVTIPAGATHILV
# Variants of: B1
# Assay: protein stability index of a GFP-peptide fusion (GPS, HEK-293T) (PSI 1-6); higher = more stable
# Conditions: c terminus: a fixed tail appended
# 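Note: lentivirally expressed fusions sorted by FACS into six bins by GFP to DsRed ratio, PSI derived from sequencing read proportions per bin multiplied by bin number.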
row,Variant,protein stability index
1,DPSSGELPSERWNPTQNVRTILLS,3.41
2,DPLSGELPSERWNPTQNVRTILLS,3.65
3,DPRSGELPSERWNPTQNVRTILLS,3.4
4,DPKSGELPSERWNPTQNVRTILLS,3.06
5,DPFSGELPSERWNPTQNVRTILLS,4.05
6,DPNSGELPSERWNPTQNVRTILLS,3.45
7,DPESGELPSERWNPTQNVRTILLS,3.82
8,DPYSGELPSERWNPTQNVRTILLS,2.42
9,DPQSGALPSERWNPTQNVRTILLS,3.13
10,DPQSGMLPSERWNPTQNVRTILLS,2.88
11,DPQSGLLPSERWNPTQNVRTILLS,2.61
12,DPQSGCLPSERWNPTQNVRTILLS,3.02
13,DPQSGYLPSERWNPTQNVRTILLS,2.95
14,DPQSGFLPSERWNPTQNVRTILLS,2.3
15,DPQSGPLPSERWNPTQNVRTILLS,2.8
16,DPQSGDLPSERWNPTQNVRTILLS,3.44
17,DPQSGELPSERWNPTQNVRTILHS,4.09
18,DPQSGELPSERWNPTQNVRTILES,4.47
19,DPQSGELPSERWNPTQNVRTILTS,4.12
20,DPQSGELPSERWNPTQNVRTILPS,4.34
21,DPQSGELPSERWNPTQNVRTILNS,4.87
22,DPQSGELPSERWNPTQNVRTILGS,3.77
23,DPQSGELPSERWNRTQNVRTILLS,4.28
24,DPQSGELPSERWNSTQNVRTILLS,3.69

row,Variant,protein stability index
1,DPQSGELPSERWNYTQNVRTILLS,3.01
2,DPQSGELPSERWNVTQNVRTILLS,3.48
3,DPQSGELPSERWNWTQNVRTILLS,3.12
4,DPQSGELPSERWNMTQNVRTILLS,3.09
5,DPQSGELPSERWNNTQNVRTILLS,3.17
6,DPQHGELPSERWNPTQNVRTILLS,3.45
7,DPQFGELPSERWNPTQNVRTILLS,3.49
8,DPQMGELPSERWNPTQNVRTILLS,2.95
9,DPQYGELPSERWNPTQNVRTILLS,2.39
10,DPQRGELPSERWNPTQNVRTILLS,3.87
11,DPQKGELPSERWNPTQNVRTILLS,3.75
12,DPQDGELPSERWNPTQNVRTILLS,3.79
13,DPQVGELPSERWNPTQNVRTILLS,3.41
14,DPQSGELPSERWNPTQNVRTIYLS,2.89
15,DPQSGELPSERWNPTQNVRTIILS,3.05
16,DPQSGELPSERWNPTQNVRTIVLS,3.42
17,DPQSGELPSERWNPTQNVRTIPLS,4.7
18,DPQSGELPSERWNPTQNVRTIELS,5.13
19,DPQSGELPSERWNPTQNVRTIWLS,2.44
20,DPQSGELPSERWNPTQNVRTIGLS,4.5
21,DPQSGELPSERWNPTQNVRTITLS,4.1
22,DPQSGELPSERWNPTQNVRTIQLS,4.25
23,DPQSGELPSERWNPTQNKRTILLS,3.78
24,DPQSGELPSERWNPTQNARTILLS,4.38

row,Variant,protein stability index
1,DPQSGELPSERWNPTQNIRTILLS,3.97
2,DPQSGELPSERWNPTQNDRTILLS,3.83
3,DPQSGELSSERWNPTQNVRTILLS,3.48
4,DPQSGELDSERWNPTQNVRTILLS,3.68
5,DPQSGELQSERWNPTQNVRTILLS,3.57
6,DPQSGELISERWNPTQNVRTILLS,2.69
7,DPQSGELFSERWNPTQNVRTILLS,3.27
8,DPQSGELMSERWNPTQNVRTILLS,3.66
9,DPQSGELWSERWNPTQNVRTILLS,3.05
10,DPQSLELPSERWNPTQNVRTILLS,3.53
11,DPQSDELPSERWNPTQNVRTILLS,3.98
12,DPQSWELPSERWNPTQNVRTILLS,2.6
13,DPQSIELPSERWNPTQNVRTILLS,3.24
14,DPQSMELPSERWNPTQNVRTILLS,3.41
15,DPQSQELPSERWNPTQNVRTILLS,3.77
16,DPQSRELPSERWNPTQNVRTILLS,3.45
17,DPQSCELPSERWNPTQNVRTILLS,2.8
18,DPQSAELPSERWNPTQNVRTILLS,3.21
19,DPQSKELPSERWNPTQNVRTILLS,3.49
20,DPQSEELPSERWNPTQNVRTILLS,4.5
21,DPQSGELPSERWNPTQGVRTILLS,4.3
22,DPQSGELPSERWNPTQPVRTILLS,4.18
23,DPQSGELPSERWNPTQWVRTILLS,2.59
24,DPQSGELPSERWNPTQDVRTILLS,3.99

row,Variant,protein stability index
1,DPQSGELPSERWNPTQEVRTILLS,3.56
2,DPQSGELPSERWNPTQQVRTILLS,3.6
3,DPQSGELPSERWNPTQNVRTCLLS,4.33
4,DPQSGELPSERWNPTQNVRTQLLS,4.18
5,DPQSGELPSERWNPTQNVRTYLLS,3.14
6,DPQSGELPSERWNPTQNVRTSLLS,4.33
7,DPQSGELPSERWNPTQNVRTRLLS,4.52
8,DPQSGELPSERWNPTQNVRTMLLS,4.12
9,DPQSGELPSERWCPTQNVRTILLS,2.78
10,DPQSGELPSERWIPTQNVRTILLS,2.87
11,DPQSGELPSERWFPTQNVRTILLS,2.66
12,DPQSGELPSERWLPTQNVRTILLS,3.47
13,DPQSGELPSERWKPTQNVRTILLS,3.88
14,DPQSGELPSERWHPTQNVRTILLS,3.3
15,DPQSGELPSERWMPTQNVRTILLS,3.79
16,DPQSGELPSERWYPTQNVRTILLS,3.16
17,DPQSGELPSERWPPTQNVRTILLS,3.71
18,DPQSGELPEERWNPTQNVRTILLS,3.95
19,DPQSGELPGERWNPTQNVRTILLS,3.27
20,DPQSGELPNERWNPTQNVRTILLS,3.8
21,DPQSGELPVERWNPTQNVRTILLS,3.81
22,DPQSGELPKERWNPTQNVRTILLS,3.94
23,DPQSGELPLERWNPTQNVRTILLS,3.76
24,DPQSGELPRERWNPTQNVRTILLS,3.43

row,Variant,protein stability index
1,DPQSGELPSERWNPTQNVRTILLT,3.14
2,DPQSGELPSERWNPTQNVRTILLG,3.4
3,DPQSGELPSERWNPTQNVRTILLM,2.23
4,DPQSGELPSERWNPTQNVRTILLK,4.34
5,DPQSGELPSERWNPTQNVRTILLH,3.58
6,DPQSGELPSERWNPTQNVRTILLQ,4.07
7,DPQSGELPSERWNPTQNVRTILLF,1.82
8,DPQSGELPSERENPTQNVRTILLS,4.71
9,DPQSGELPSERPNPTQNVRTILLS,4.4
10,DPQSGELPSERNNPTQNVRTILLS,4.48
11,DPQSGELPSERINPTQNVRTILLS,4.35
12,DPQSGELPSERKNPTQNVRTILLS,4.54
13,DPQSGELPSERGNPTQNVRTILLS,4.33
14,DPQSGELPSERMNPTQNVRTILLS,4.1
15,DPQSGELPSERYNPTQNVRTILLS,4.07
16,DPQSGELPSERTNPTQNVRTILLS,4.72
17,DPQSGELPSERLNPTQNVRTILLS,3.62
18,DPQSGELPSERWNPTQNVREILLS,3.19
19,DPQSGELPSERWNPTQNVRPILLS,3.79
20,DPQSGELPSERWNPTQNVRLILLS,2.79
21,DPQSGELPSERWNPTQNVRQILLS,3.76
22,DPQSGELPSERWNPTQNVRYILLS,2.46
23,DPQSGELPSERWNPTQNVRNILLS,3.71
24,DPQSGELPSERWNPTQNVRHILLS,3.6

row,Variant,protein stability index
1,DPQSGELPSERWNPTQNVRSILLS,4.1
2,DMQSGELPSERWNPTQNVRTILLS,3.16
3,DTQSGELPSERWNPTQNVRTILLS,3.52
4,DKQSGELPSERWNPTQNVRTILLS,3.95
5,DPQSGELPSERWNPTGNVRTILLS,3.53
6,DPQSGELPSERWNPTCNVRTILLS,3.04
7,DPQSGELPSERWNPTHNVRTILLS,3.44
8,DPQSGELPSERWNPTKNVRTILLS,3.51
9,DPQSGELPSERWNPTWNVRTILLS,2.54
10,DPQSGELPSERWNPTMNVRTILLS,3.46
11,DPQSGELPSERWNPTPNVRTILLS,3.24
12,DPQSGELPSERWNPTSNVRTILLS,3.58
13,DPQSGELPSERWNPTANVRTILLS,3.67
14,DPQSGELPSWRWNPTQNVRTILLS,2.39
15,DPQSGELPSIRWNPTQNVRTILLS,2.55
16,DPQSGELPSVRWNPTQNVRTILLS,2.6
17,DPQSGELPSYRWNPTQNVRTILLS,2.71
18,DPQSGELPSMRWNPTQNVRTILLS,3.09
19,DPQSGELPSDRWNPTQNVRTILLS,3.43
20,DPQSGELPSRRWNPTQNVRTILLS,3.17
21,DPQSGELPSARWNPTQNVRTILLS,2.98
22,DPQSGELPSPRWNPTQNVRTILLS,3.51
23,DPQSGELPSERWNPMQNVRTILLS,2.86
24,DPQSGELPSERWNPNQNVRTILLS,3.89

row,Variant,protein stability index
1,DPQSGELPSERWNPCQNVRTILLS,3.26
2,DPQSGELPSERWNPHQNVRTILLS,3.79
3,DPQSGELPSERWNPRQNVRTILLS,3.76
4,DPQSGELPSERWNPKQNVRTILLS,3.5
5,DPQSGELPSERWNPWQNVRTILLS,2.13
6,DPQSGELPSERWNPVQNVRTILLS,3.48
7,DPQSGELPSERWNPIQNVRTILLS,2.78
8,DPQSGELPSERWNPAQNVRTILLS,3.15
9,DPQSGELPSECWNPTQNVRTILLS,3.76
10,DPQSGELPSEIWNPTQNVRTILLS,2.77
11,DPQSGELPSEVWNPTQNVRTILLS,3.62
12,DPQSGELPSEFWNPTQNVRTILLS,2.82
13,DPQSGELPSELWNPTQNVRTILLS,3.24
14,DPQSGELPSEYWNPTQNVRTILLS,2.82
15,DPQSGELPSEHWNPTQNVRTILLS,3.3
16,DPQSGELPSEPWNPTQNVRTILLS,3.71
17,DPQSGELPSEAWNPTQNVRTILLS,3.77
18,DPQSGELPSEGWNPTQNVRTILLS,4.23
19,DPQSGELPSEKWNPTQNVRTILLS,3.5
20,DPQSGEDPSERWNPTQNVRTILLS,4.51
21,DPQSGEGPSERWNPTQNVRTILLS,3.69
22,DPQSGEAPSERWNPTQNVRTILLS,4.25
23,DPQSGEMPSERWNPTQNVRTILLS,3.71
24,DPQSGEYPSERWNPTQNVRTILLS,3.06

row,Variant,protein stability index
1,DPQSGESPSERWNPTQNVRTILLS,3.79
2,DPQSGECPSERWNPTQNVRTILLS,3.29
3,DPQSGERPSERWNPTQNVRTILLS,3.81
4,DPQSGENPSERWNPTQNVRTILLS,4.11
5,DPQSGELPSERWNPTQNVDTILLS,4.43
6,DPQSGELPSERWNPTQNVSTILLS,4.08
7,DPQSGELPSERWNPTQNVFTILLS,2.6
8,DPQSGELPSERWNPTQNVVTILLS,2.28
9,DPQSGELPSERWNPTQNVYTILLS,2.11
10,DPQSGELPSERWNPTQNVPTILLS,3.87
11,DPQSGELPSERWNPTQNVATILLS,3.61
12,LPQSGELPSERWNPTQNVRTILLS,3.58
13,QPQSGELPSERWNPTQNVRTILLS,3.88
14,IPQSGELPSERWNPTQNVRTILLS,2.67
15,RPQSGELPSERWNPTQNVRTILLS,3.17
16,VPQSGELPSERWNPTQNVRTILLS,2.35
17,CPQSGELPSERWNPTQNVRTILLS,3.93

# Variants of: B2
# Assay: as above
# Conditions: c terminus: a fixed tail appended
row,Variant,protein stability index
1,CFRKFRYGYNNVVTIPAGATHILV,2.8
2,DFRKFRYGYNNVVTIPAGATHILV,2.25
3,AFRKFRYGYNNVVTIPAGATHILV,4.18
